From the RNAGym collection of RNA variant scans (doi:10.1073/pnas.2313332121)

B1: TPR t1 (parent)
chain: GACCAAUCUGCCCUCAGAGCUCGAGAACAUCUUCGGAUGCAGAGGAGGCAGGCUUCGGUGGCGCGAUAGCGCCAACGUCCUCAACCUCCAAUGCAUCCCACCACAUGAUGAUGCCUGAAGAGCCUUGGUUUUUUG

Variants of: B1
Experiment: polymerase ribozyme fitness, log enrichment relative to wild type (log ratio); higher = more active; in vitro selection for triplet polymerase activity
In short: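 Mutant libraries of both subunits of a heterodimeric triplet polymerase ribozyme were PCR-built, transcribed, and selected once in triplicate, with frozen incubation at −7 °C and capture of gel-excised extended constructs on streptavidin beads before RT-PCR. Illumina sequencing of input and output libraries was filtered to genotypes with ≥10 input reads and ≥1 read per output. Fitness is the logarithm of genotype enrichment over wild-type enrichment, using inverse-variance-weighted replicate averages. The logarithm is base 2.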

In order of falling “polymerase ribozyme fitness (log ratio)” value:
1. G19C A37G G69U C124G  0.721
2. G19U A46C G52C U54C U96C C114A  0.227
3. A18U G61A C123G  0.0966
4. C20A U112A  0.09
5. C20A G45A G113U  -0.291
6. G19A C40U U112A  -0.444
7. G19A A41U U81A C82A U112A  -0.674
8. C20A G122A C123G  -0.681
9. C20A A121U  -0.837
10. G19C C72U A91U G113A  -0.96
11. G19C U81C C124G  -0.981
12. G19U C94A A105C C114A A118U  -0.986
13. G19U C53G C73A U112A  -1.03
14. G19U A26U C114A  -1.45
15. A18U G120U  -1.46
16. A18U G60A A90C  -1.79
17. C20A G57C C62U G120C  -2.1
18. G19U C70U C94A C114U  -2.13
19. A18U U78C C88U U112G  -2.16
20. G19C G42A G120U  -2.23
21. G19C C89A U125G  -2.33
22. G19U A43G  -2.34
23. G19U G71C A121U  -2.34
24. A18U G122U  -2.38
25. A18U U112C G128A  -2.38
26. G19A G52A G113A G127A  -2.38
27. C20A G60U U92C A121C  -2.4
28. G19U U59G U106G U112A  -2.43
29. G19U C20U  -2.46
30. A18U U54A C72G  -2.46
31. C20A C79U  -2.47
32. G19A C123U  -2.48
33. G19A G110A  -2.58
34. C20A G69U C104A  -2.59
35. A18U U38G C56U C114A G135U  -2.6
36. G19A C89A  -2.63
37. G19A G69U G127C  -2.66
38. G19A U87A  -2.78
39. A18U G45A C73U  -2.84
40. G19A G63C  -2.92
41. C20A G127C  -2.94
42. C20A C62U  -2.95
43. G19A C49G C85U A111C  -2.99
44. C20A U129C  -3.02
45. G19U C72A  -3.06
46. G19U G42A  -3.15
47. G19U C62U  -3.18
48. G19A G60A U87A C114G  -3.18
49. G19U C88U  -3.2
50. A18U U96A  -3.21
51. C20A C56A C82U  -3.22
52. G19A A74C  -3.23
53. G19U A43U  -3.24
54. C20A G60C  -3.33
55. C20A C40U  -3.35
56. A18U U125G  -3.41
57. G19A G71C  -3.41
58. A18U G127C  -3.45
59. C20A C70U C76G  -3.5
60. G19A G60A A95U  -3.51
61. A18U G110U  -3.52
62. G19C A66C C114U U116C  -3.53
63. A18U G71A G120A  -3.53
64. C20A G47A  -3.54
65. G19U G69U G110C  -3.55
66. G19C G52A A119U  -3.63
67. C20A C56A C98U  -3.64
68. G19U A37C  -3.64
69. G19A G110U  -3.66
70. G19U C62G G71U  -3.71
71. C20A A90U  -3.71
72. G19A G58C C94G G120C  -3.72
73. A18U G93C C94U  -3.75
74. C20A C49U  -3.79
75. G19U A46U G60A  -3.83
76. C20A A50U G120A  -3.84
77. C20A A27G C40G U55C G71C G113A  -3.84
78. C20A G52U C62U U96G G120A  -3.86
79. G19U A37C C56U A84C  -3.87
80. C20A C22G G71A A121G  -3.88
81. A18U G52U U133A  -3.89
82. C20A A111G  -3.92
83. A18U U129G  -3.92
84. G19U G42C  -3.93
85. A18U G60A C88G A118U U130G  -3.95
86. G19A C79G U81C  -3.95
87. A18U G47U  -3.96
88. A18U U21A A24G U55G  -3.96
89. C20A G42U G47U C53U G120U  -3.98
90. C20A G110U  -3.99
91. C20A C53A U59A G69C  -4
92. G19A C20A A66G G69U U96A  -4.02
93. G19A C76A C89G  -4.06
94. G19U G71U A84U  -4.08
95. C20A G39U  -4.11
96. C20A G42C  -4.12
97. G19A C86G C101U  -4.15
98. C20A C28U A46C G113U C115A  -4.17
99. G19U U55G C123A  -4.18
100. A18U U78A A95U C104U  -4.27
101. A18U U129A  -4.3
102. G19U A43G G47U C76G G113A A119C U131A  -4.34
103. G19A A41U U78C U132C  -4.37
104. G19U U21A C49A C82A G113C  -4.41
105. G19C C22G C72U  -4.44
106. C20A G61C  -4.5
107. G19U A37U U55G  -4.52
108. G19C C22U A46C G61U C114U  -4.53
109. C20A A37C G47C A83U U133G  -4.54
110. C20A U92G G122U  -4.6
111. G19C C79A C89A  -4.61
112. G19C A37U A46C C72A C76U C82G C124A  -4.65
113. A18U U92A  -4.67
114. C20A C82U U87G C102A  -4.69
115. C20G A41U C73G U87C U92A C123G  -4.71
116. C20A A41U G71A  -4.76
117. G19A U87G U109G  -4.8
118. C20A C56A C76A C82U  -4.8
119. C20A A26G G110U  -4.8
120. G19A G42U G45C A50U  -4.81
121. G19U G39C C53U G71U U81A G93U C114A  -4.82
122. C20A C70A  -4.86
123. A18U G113U  -4.9
124. C20A G61C U133G  -4.9
125. C20A A68G U78C C123U  -4.98
126. G19A G60A C101A U106A A119U C123U  -5
127. G19U G36C A75G A111C U132A  -5.05
128. A18U U67G C101G U116C  -5.12
129. G19A C20A U59C U96A  -5.13
130. C20A U32A G35C G71U C115A  -5.14
131. C20A G61C A121G G128U  -5.15
132. G19A C101G  -5.15
133. C20A A26G U33A  -5.24
134. C20G A41U C104A G113A U132C  -5.25
135. G19U G48C C123U  -5.25
136. G19A A91G G117A  -5.25
137. G19C G44C C70A G93C C124G  -5.3
138. C20A A46C A74G G93C A118G  -5.42
139. C20A A46G C49A G60U U81G A91C  -5.46
140. G19U G63C U92A  -5.54
141. A18U G57A U106A  -5.57
142. C20A C70G  -5.59
143. G19A G48U G63A U96G C101A G113U  -5.6
144. C20A C34G C85U A90C G120C  -5.64
145. C20A C97A  -5.7
146. C20A A41C G71A C82A  -5.71
147. A18U G42C A43C G93C  -5.75
148. A18U G93C C97U G128U  -5.92
149. C20A C72G U81A U109A A118C G122A  -5.92
150. A18U G44A A46U G48C G61U C72U C98U  -5.97
151. C20G A24G G45C C73A C88A C115U  -5.98
152. C20A A41U G61A C102A  -6.03
153. G19A G23U U92A G120U C124U  -6.05
154. C20A C86G C89U A119U  -6.11
155. G19A U116G  -6.24
156. C20A C64G U92C A121C  -6.25
157. G19U G51A G60C G120A  -6.42
158. C20A C28A G36A C72G A90C G110U  -6.43
159. G19A G35C C53G C114G  -6.59
160. G19A G69C G110C  -6.61
161. G19U G63A G77U U109A C114U G117C  -6.78
162. G19U G47U C49G C70U C86U U87C U109A C115U  -6.81
163. C20A C72G A95U G113C  -6.92
164. G19C A43C G44C C64A A105C A111U  -7.06
165. G19C A24U G48U G52U C64G U109A G110U  -7.39
166. A18U U21G C79G G93C G107C A108U C123G C124U  -7.63
167. C20A G23C U33C C62U U106A A108C G117C  -8.64
